Source: EP4640225A1 (dated 2025)

Columns and labels:
Assay in all cases: activation reporter or marker
[1] = target: T1, KK-LC-1 peptide on HLA-B*15:01 (human)
T1 peptide: RQKRILVNL

[2] = target: T2, KK-LC-1 peptide on HLA-C*07:02 (human)
T2 peptide: RFQRNTGEM

[3] = target: T3, KK-LC-1 peptide on HLA-B*51:01 (human)
T3 peptide: RFQRNTGEM

[4] = target: T4, KK-LC-1 peptide on HLA-A*24:02 (human)
T4 peptide: RFQRNTGEM

[5] = target: T5, KK-LC-1 peptide on HLA-A*26:03 (human)
T5 peptide: RFQRNTGEM

[6] = target: T6, KK-LC-1 peptide on HLA-B*15:01 (human)
T6 peptide: RFQRNTGEM

[7] = target: T7, KK-LC-1 peptide on HLA-C*14:02 (human)
T7 peptide: RFQRNTGEM

B1: pt. 1-ex15TCR (TCR, V domains shown)
Valpha: AQKVTQAQTEISVVEKEDVTLDCVYETRDTTYYLFWYKQPPSGELVFLIRRNSFDEQNEISGRYSWNFQKSTSSFNFTITASQVVDSAVYFCALSDPEESGYALNFGKGTSLLVTP
Vbeta: DTGVSQDPRHKITKRGQNVTFRCDPISEHNRLYWYRQTLGQGPEFLTYFQNEAQLEKSRLLSDRFSAERPKGSFSTLEIQRTEQGDSAMYLCASSSNEKLFFGSGTQLSVL
- binding result [1]: recognises

B2: pt. 1-ex08TCR (TCR, V domains shown)
Valpha: KDQVFQPSTVASSEGAVVEIFCNHSVSNAYNFFWYLHFPGCAPRLLVKGSKPSQQGRYNMTYERFSSSLLILQVREADAAVYYCAVEDVPVNDYKLSFGAGTTVTVRA
Vbeta: DAGITQSPRHKVTETGTPVTLRCHQTENHRYMYWYRQDPGHGLRLIHYSYGVKDTDKGEVSDGYSVSRSKTEDFLLTLESATSSQTSVYFCAISAEGTYEQYFGPGTRLTVT
- binding result [1]: recognises

B3: pt. 2-ex08TCR (TCR, V domains shown)
Valpha: GESVGLHLPTLSVQEGDNSIINCAYSNSASDYFIWYKQESGKGPQFIIDIRSNMDKRQGQRVTVLLNKTVKHLSLQIAATQPGDSAVYFCAEIPWGGSQGNLIFGKGTKLSVKP
Vbeta: DTGVSQDPRHKITKRGQNVTFRCDPISEHNRLYWYRQTLGQGPEFLTYFQNEAQLEKSRLLSDRFSAERPKGSFSTLEIQRTEQGDSAMYLCASSRDDREYFGEGSWLTVV
- binding result [2]: no recognition
- binding result [3]: no recognition
- binding result [4]: no recognition
- binding result [5]: no recognition
- binding result [6]: no recognition
- binding result [7]: recognises

B4: pt. 2-ex09TCR (TCR, V domains shown)
Valpha: GQNIDQPTEMTATEGAIVQINCTYQTSGFNGLFWYQQHAGEAPTFLSYNVLDGLEEKGRFSSFLSRSKGYSYLLLKELQMKDSASYLCAVDDGGATNKLIFGTGTLLAVQP
Vbeta: ETGVTQSPTHLIKTRGQQVTLRCSSQSGHNTVSWYQQALGQGPQFIFQYYREEENGRGNFPPRFSGLQFPNYSSELNVNALELDDSALYLCASSTRDRGTYEQYFGPGTRLTVT
- binding result [1]: recognises
